Measurements reported in patent US20120003670A1 (BLOOD CENTER RESEARCH FOUNDATION, published 2012).

How the values were obtained:
[1] = target: T1, von Willebrand factor (VWF) in plasma of reference standards, controls and normal individuals (human, UniProt P04275 764-2813); test: FACS on transfected HEK-293T cells, ristocetin titration
T1 construct: In the assays VWF was the multimeric protein in diluted platelet poor plasma; also called PPP (source of VWF); ISTH 2
Method: (§1) For FACS, about 50 μl of a 1:10 dilution of platelet poor plasma (PPP; source of VWF) in assay buffer was added to the plate and serially diluted 1:2 to final dilution of 1:80. ISTH Lot #3 (GTI; Milwaukee, Wis.) was used as a standard and diluted 1:10 in assay buffer and serially diluted 1:2 to a final dilution of 1:320. The plate was then incubated for one hour at room temperature. After the one-hour incubation, the plate was centrifuged again at 1200 rpm for 5 minutes and the supernatant was discarded.
(§2) In some experiments, the PPP was diluted in PBS containing 1% BSA and either 1 mg/ml Ristocetin A (American Biochemical & Pharmaceuticals, Ltd.; Marlton, N.J.) or 1 mg/ml Botrocetin (Sigma Aldrich).
(§3) Fluorescently labeled antibodies (anti-GPIbα; Blood Research Institute) were diluted to a final concentration of 5 μg/ml in assay buffer. Fluorescently labeled anti-VWF polyclonal was also was diluted to a final concentration of 5 μg/ml in assay buffer and added to transfected cells incubated in PPP. Normal rabbit IgG (NRIgG; Pierce) and AP-1 were added at a concentration of 5 μg/ml to transfected cells as negative and positive controls, respectively. The plate was then incubated in the dark for one hour at room temperature. Assay buffer was added to each well to bring the final volume to 150 μl, and FACS was performed using a BD LSRII System (Becton Dickinson). Results are shown in VWF:IbCo units.

[2] = target: T1, von Willebrand factor (VWF) in plasma …; test: FACS on transfected HEK-293T cells, with ristocetin or botrocetin
Method: as §1, §2
as §3, with “Results are shown in VWF:IbCo units.” left out

Row | Binder | binding result [1] | binding result [2]
1 | GPIbα D235Y, full-length, on transfected HEK-293T cells (receptor, Some cells were also transfected with GPIbβ and GP-IX; also called single mutation D235Y) HPICEVSKVASHLEVNCDKRNLTALPPDLPKDTTILHLSENLLYTFSLATLMPYTRLTQLNLDRCELTKLQVDGTLPVLGTLDLSHNQLQSLPLLGQTLPALTVLDVSFNRLTSLPLGALRGLGELQELYLKGNELKTLPPGLLTPTPKLEKLSLANNNLTELPAGLLNGLENLDTLLLQENSLYTIPKGFFGSHLLPFAFLHGNPWLCNCEILYFRRWLQDNAENVYVWKQGVYVKAMTSNVASVQCDNSDKFPVYKYPGKGCPTLGDEGDTDLYDYYPEEDTEGDKVRATRTVVKFPTKAHTTPWGLFYSWSTASLDSQMPSSLHPTQESTKEQTTFPPRWTPNFTLHMESITFSKTPKSTTEPTPSPTTSEPVPEPAPNMTTLEPTPSPTTPEPTSEPAPSPTTPEPTSEPAPSPTTPEPTPIPTIATSPTILVSATSLITPKSTFLTTTKPVSLLESTKKTIPELDQPPKLRGVLQGHLESSRNDPFLHPDFCCLLPLGFYVLGLFWLLFASVVLILLLSWVGHVKPQALDSGQGAALTTATQTTHLELQRGRQVTVPRAWLLFLRGSLPTFRSSLFLWVRPNGRVGPLVAGRRPSALSQGRGQDLLSTVSIRYSGHSL | binds | –
2 | GPIbα G233V, full-length, on transfected HEK-293T cells (receptor, Some cells were also transfected with GPIbβ and GP-IX; also called single mutation G233V) HPICEVSKVASHLEVNCDKRNLTALPPDLPKDTTILHLSENLLYTFSLATLMPYTRLTQLNLDRCELTKLQVDGTLPVLGTLDLSHNQLQSLPLLGQTLPALTVLDVSFNRLTSLPLGALRGLGELQELYLKGNELKTLPPGLLTPTPKLEKLSLANNNLTELPAGLLNGLENLDTLLLQENSLYTIPKGFFGSHLLPFAFLHGNPWLCNCEILYFRRWLQDNAENVYVWKQVVDVKAMTSNVASVQCDNSDKFPVYKYPGKGCPTLGDEGDTDLYDYYPEEDTEGDKVRATRTVVKFPTKAHTTPWGLFYSWSTASLDSQMPSSLHPTQESTKEQTTFPPRWTPNFTLHMESITFSKTPKSTTEPTPSPTTSEPVPEPAPNMTTLEPTPSPTTPEPTSEPAPSPTTPEPTSEPAPSPTTPEPTPIPTIATSPTILVSATSLITPKSTFLTTTKPVSLLESTKKTIPELDQPPKLRGVLQGHLESSRNDPFLHPDFCCLLPLGFYVLGLFWLLFASVVLILLLSWVGHVKPQALDSGQGAALTTATQTTHLELQRGRQVTVPRAWLLFLRGSLPTFRSSLFLWVRPNGRVGPLVAGRRPSALSQGRGQDLLSTVSIRYSGHSL | binds | –
3 | GPIbα D235Y/M239V, full-length, on transfected HEK-293T cells (receptor, Some cells were also transfected with GPIbβ and GP-IX; also called double mutation D235Y/M239V) HPICEVSKVASHLEVNCDKRNLTALPPDLPKDTTILHLSENLLYTFSLATLMPYTRLTQLNLDRCELTKLQVDGTLPVLGTLDLSHNQLQSLPLLGQTLPALTVLDVSFNRLTSLPLGALRGLGELQELYLKGNELKTLPPGLLTPTPKLEKLSLANNNLTELPAGLLNGLENLDTLLLQENSLYTIPKGFFGSHLLPFAFLHGNPWLCNCEILYFRRWLQDNAENVYVWKQGVYVKAVTSNVASVQCDNSDKFPVYKYPGKGCPTLGDEGDTDLYDYYPEEDTEGDKVRATRTVVKFPTKAHTTPWGLFYSWSTASLDSQMPSSLHPTQESTKEQTTFPPRWTPNFTLHMESITFSKTPKSTTEPTPSPTTSEPVPEPAPNMTTLEPTPSPTTPEPTSEPAPSPTTPEPTSEPAPSPTTPEPTPIPTIATSPTILVSATSLITPKSTFLTTTKPVSLLESTKKTIPELDQPPKLRGVLQGHLESSRNDPFLHPDFCCLLPLGFYVLGLFWLLFASVVLILLLSWVGHVKPQALDSGQGAALTTATQTTHLELQRGRQVTVPRAWLLFLRGSLPTFRSSLFLWVRPNGRVGPLVAGRRPSALSQGRGQDLLSTVSIRYSGHSL | binds | –
4 | wild-type GPIbα (SEQ ID NO:11), full-length, on transfected HEK-293T cells (receptor, also called wild-type control) HPICEVSKVASHLEVNCDKRNLTALPPDLPKDTTILHLSENLLYTFSLATLMPYTRLTQLNLDRCELTKLQVDGTLPVLGTLDLSHNQLQSLPLLGQTLPALTVLDVSFNRLTSLPLGALRGLGELQELYLKGNELKTLPPGLLTPTPKLEKLSLANNNLTELPAGLLNGLENLDTLLLQENSLYTIPKGFFGSHLLPFAFLHGNPWLCNCEILYFRRWLQDNAENVYVWKQGVDVKAMTSNVASVQCDNSDKFPVYKYPGKGCPTLGDEGDTDLYDYYPEEDTEGDKVRATRTVVKFPTKAHTTPWGLFYSWSTASLDSQMPSSLHPTQESTKEQTTFPPRWTPNFTLHMESITFSKTPKSTTEPTPSPTTSEPVPEPAPNMTTLEPTPSPTTPEPTSEPAPSPTTPEPTSEPAPSPTTPEPTPIPTIATSPTILVSATSLITPKSTFLTTTKPVSLLESTKKTIPELDQPPKLRGVLQGHLESSRNDPFLHPDFCCLLPLGFYVLGLFWLLFASVVLILLLSWVGHVKPQALDSGQGAALTTATQTTHLELQRGRQVTVPRAWLLFLRGSLPTFRSSLFLWVRPNGRVGPLVAGRRPSALSQGRGQDLLSTVSIRYSGHSL | – | binds
5 | GPIbα G233V/D235Y/M239V, full-length, on transfected HEK-293T cells (receptor, Some cells were also transfected with GPIbβ and GP-IX; also called triple mutation; triple GPIbα mutation) HPICEVSKVASHLEVNCDKRNLTALPPDLPKDTTILHLSENLLYTFSLATLMPYTRLTQLNLDRCELTKLQVDGTLPVLGTLDLSHNQLQSLPLLGQTLPALTVLDVSFNRLTSLPLGALRGLGELQELYLKGNELKTLPPGLLTPTPKLEKLSLANNNLTELPAGLLNGLENLDTLLLQENSLYTIPKGFFGSHLLPFAFLHGNPWLCNCEILYFRRWLQDNAENVYVWKQVVYVKAVTSNVASVQCDNSDKFPVYKYPGKGCPTLGDEGDTDLYDYYPEEDTEGDKVRATRTVVKFPTKAHTTPWGLFYSWSTASLDSQMPSSLHPTQESTKEQTTFPPRWTPNFTLHMESITFSKTPKSTTEPTPSPTTSEPVPEPAPNMTTLEPTPSPTTPEPTSEPAPSPTTPEPTSEPAPSPTTPEPTPIPTIATSPTILVSATSLITPKSTFLTTTKPVSLLESTKKTIPELDQPPKLRGVLQGHLESSRNDPFLHPDFCCLLPLGFYVLGLFWLLFASVVLILLLSWVGHVKPQALDSGQGAALTTATQTTHLELQRGRQVTVPRAWLLFLRGSLPTFRSSLFLWVRPNGRVGPLVAGRRPSALSQGRGQDLLSTVSIRYSGHSL | binds | –
6 | GPIbα G233V/M239V, full-length, on transfected HEK-293T cells (GPIbα alone in Table 2) (receptor, also called double mutation G233V/M239V) HPICEVSKVASHLEVNCDKRNLTALPPDLPKDTTILHLSENLLYTFSLATLMPYTRLTQLNLDRCELTKLQVDGTLPVLGTLDLSHNQLQSLPLLGQTLPALTVLDVSFNRLTSLPLGALRGLGELQELYLKGNELKTLPPGLLTPTPKLEKLSLANNNLTELPAGLLNGLENLDTLLLQENSLYTIPKGFFGSHLLPFAFLHGNPWLCNCEILYFRRWLQDNAENVYVWKQVVDVKAVTSNVASVQCDNSDKFPVYKYPGKGCPTLGDEGDTDLYDYYPEEDTEGDKVRATRTVVKFPTKAHTTPWGLFYSWSTASLDSQMPSSLHPTQESTKEQTTFPPRWTPNFTLHMESITFSKTPKSTTEPTPSPTTSEPVPEPAPNMTTLEPTPSPTTPEPTSEPAPSPTTPEPTSEPAPSPTTPEPTPIPTIATSPTILVSATSLITPKSTFLTTTKPVSLLESTKKTIPELDQPPKLRGVLQGHLESSRNDPFLHPDFCCLLPLGFYVLGLFWLLFASVVLILLLSWVGHVKPQALDSGQGAALTTATQTTHLELQRGRQVTVPRAWLLFLRGSLPTFRSSLFLWVRPNGRVGPLVAGRRPSALSQGRGQDLLSTVSIRYSGHSL | binds | –
7 | GPIbα M239V, full-length, on transfected HEK-293T cells (receptor, Some cells were also transfected with GPIbβ and GP-IX; also called single mutation M239V) HPICEVSKVASHLEVNCDKRNLTALPPDLPKDTTILHLSENLLYTFSLATLMPYTRLTQLNLDRCELTKLQVDGTLPVLGTLDLSHNQLQSLPLLGQTLPALTVLDVSFNRLTSLPLGALRGLGELQELYLKGNELKTLPPGLLTPTPKLEKLSLANNNLTELPAGLLNGLENLDTLLLQENSLYTIPKGFFGSHLLPFAFLHGNPWLCNCEILYFRRWLQDNAENVYVWKQGVDVKAVTSNVASVQCDNSDKFPVYKYPGKGCPTLGDEGDTDLYDYYPEEDTEGDKVRATRTVVKFPTKAHTTPWGLFYSWSTASLDSQMPSSLHPTQESTKEQTTFPPRWTPNFTLHMESITFSKTPKSTTEPTPSPTTSEPVPEPAPNMTTLEPTPSPTTPEPTSEPAPSPTTPEPTSEPAPSPTTPEPTPIPTIATSPTILVSATSLITPKSTFLTTTKPVSLLESTKKTIPELDQPPKLRGVLQGHLESSRNDPFLHPDFCCLLPLGFYVLGLFWLLFASVVLILLLSWVGHVKPQALDSGQGAALTTATQTTHLELQRGRQVTVPRAWLLFLRGSLPTFRSSLFLWVRPNGRVGPLVAGRRPSALSQGRGQDLLSTVSIRYSGHSL | binds | –
8 | GPIbα G233V/D235Y, full-length, on transfected HEK-293T cells (receptor, Some cells were also transfected with GPIbβ and GP-IX; also called double mutation G233V/D235Y) HPICEVSKVASHLEVNCDKRNLTALPPDLPKDTTILHLSENLLYTFSLATLMPYTRLTQLNLDRCELTKLQVDGTLPVLGTLDLSHNQLQSLPLLGQTLPALTVLDVSFNRLTSLPLGALRGLGELQELYLKGNELKTLPPGLLTPTPKLEKLSLANNNLTELPAGLLNGLENLDTLLLQENSLYTIPKGFFGSHLLPFAFLHGNPWLCNCEILYFRRWLQDNAENVYVWKQVVYVKAMTSNVASVQCDNSDKFPVYKYPGKGCPTLGDEGDTDLYDYYPEEDTEGDKVRATRTVVKFPTKAHTTPWGLFYSWSTASLDSQMPSSLHPTQESTKEQTTFPPRWTPNFTLHMESITFSKTPKSTTEPTPSPTTSEPVPEPAPNMTTLEPTPSPTTPEPTSEPAPSPTTPEPTSEPAPSPTTPEPTPIPTIATSPTILVSATSLITPKSTFLTTTKPVSLLESTKKTIPELDQPPKLRGVLQGHLESSRNDPFLHPDFCCLLPLGFYVLGLFWLLFASVVLILLLSWVGHVKPQALDSGQGAALTTATQTTHLELQRGRQVTVPRAWLLFLRGSLPTFRSSLFLWVRPNGRVGPLVAGRRPSALSQGRGQDLLSTVSIRYSGHSL | binds | –
